Test results taken from US20240150445A1 (DUKE UNIVERSITY, published 2024).

Biological target: Env 10.17 gp120 (HIV-1)
Experiment: direct-binding ELISA (OD450) on CH848.d0949.10.17 gp120 [panel A]

B1: DH270.IA4 (antibody, V domains shown)
VH: QVQLVQSGAEVKKPGASVKVSCKASGYTFTDYYIHWVRQAPGQGLEWMGWINPNTGRTNYAQKFQGRVTMTRDTSISTAYMELSRLRSDDTAVYYCARGGWIGLYYDSSGYPNFDYWGQGTLVTVSS
VL: QSALTQPASVSGSPGQSITISCTGTSYDVGSYNLVSWYQQHPGKAPKLMIYEVSKRPSGVSNRFSGSKSGNTASLTISGLQAEDEADYYCCSYAGSSTVIFGGGTKLTVL
notes: Inferred intermediate, recombinant IgG; also called DH270.I4
  EC50 (read off the curve): ~2 µg/mL
